How the values were obtained:
[1] = target: T1, Z-FK-2,4,6-trimethylbenzoyloxymethyl ketone
T1 chain: FK

[2] = target: T2, t-butyloxycarbonyl-Gly-Lys-Arg-7-amido-4-methylcoumarin
T2 chain: GKR

[3] = target: T3, Soybean trypsin inhibitor, P01070
T3 chain: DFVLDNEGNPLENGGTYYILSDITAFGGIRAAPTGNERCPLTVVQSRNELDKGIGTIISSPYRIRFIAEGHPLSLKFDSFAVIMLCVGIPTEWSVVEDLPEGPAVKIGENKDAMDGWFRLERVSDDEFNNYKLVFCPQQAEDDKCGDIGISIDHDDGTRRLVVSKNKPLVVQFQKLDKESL

[4] = target: T4, Z-VAD-fmk
T4 chain: VAD

[5] = target: T5, H-Ala-Phe-Lys-7-amido-4-methylcoumarin
T5 chain: AFK

[6] = target: T6, Z-DEVD-cmk
T6 chain: DEVD

[7] = target: T7, benzyloxycarbonyl-Phe-Arg-AMC
T7 chain: FR

[8] = target: T8, t-butyloxycarbonyl-Gly-Arg-Arg-7-amido-4-methylcoumarin
T8 chain: GRR

[9] = target: T9, Z-YVAD-cmk
T9 chain: YVAD

B1: N-terminally HIS6-tagged Atmc9 (bacterially produced) (protein)
chain: MSYYHHHHHHLESTSLYKKAGSTMDQQGMVKKRLAVLVGCNYPNTRNELHGCINDVLAMKETILSRFGFKQDDIEVLTDEPESKVKPTGANIKAALRRMVDKAQAGSGDILFFHYSGHGTRIPSVKSAHPFKQDEAIVPCDFNLITDVDFRELVNQLPKGTSFTMISDSCHSGGLIDKEKEQIGPSSVSSNISPAIETTNKTITSRALPFKAVLDHLSSLTGITTSDIGTHLLELFGRDAGLKFRLPAMDLMDLLETMTAREKHVDSGILMSGCQADETSADVGVGNGKAYGAFSNAIQRVLNENEGAMKNKQLVMMARDVLERLGFHQHPCLYCSDQNADATFLSQP
- Activity (%) of Atmc9 with Boc-GKR-AMC as substrate, reagent at 1 µM [1]: 33%
- kcat/Km [2]: 1900 M⁻¹ s⁻¹
- Activity (%) of Atmc9 with Boc-GKR-AMC as substrate, reagent at 100 µg/ml [3]: 73%
- Activity (%) of Atmc9 with Boc-GKR-AMC as substrate, reagent at 100 µM [4]: 87%
- kcat/Km [5]: 750 M⁻¹ s⁻¹
- Activity (%) of Atmc9 with Boc-GKR-AMC as substrate, reagent at 100 µM [6]: 94%
- kcat/Km [7]: 2900 M⁻¹ s⁻¹
- kcat/Km [8]: 2900 M⁻¹ s⁻¹
- Activity (%) of Atmc9 with Boc-GKR-AMC as substrate, reagent at 100 µM [9]: 100%

Reference: patent publication US20060029995A1, “Novel class of metacaspases” (Vlaams Interuniversitair Instituut Voor Biotechnologie VZW, priority 2003, published 2006)
